The values below come from paper PMC12208494, “The zinc metalloprotein MigC impacts cell wall biogenesis through interactions with an essential Mur ligase in Acinetobacter baumannii” (PLOS Pathogens, 2025).

What all share (type): biochemical, Acinetobacter baumannii
Substrate in the data set “HPLC of UMAG formation”: Nc1ncnc2c1ncn2[C@@H]1O[C@H](COP(=O)(O)OP(=O)(O)OP(=O)(O)O)[C@@H](O)[C@H]1O
The experiment in a line: HPLC of UMAG formation. The note with it: 200 µM UMA, 1 mM D-glutamate, 2 mM MgCl2, 500 µM GTP, BSA added (no MigC), pH 7.4, 37 °C.

Substrate in data set [1]: Nc1nc2c(ncn2[C@@H]2O[C@H](COP(=O)(O)OP(=O)(O)OP(=O)(O)O)[C@@H](O)[C@H]2O)c(=O)[nH]1
The experiment in a line: malachite green phosphate release. The note with it: Zn-bound MigC (1 equivalent Zn), 2 mM MgCl2, 150 mM KCl, pH 7.4, 37 °C.

Substrate in data set [2]: Nc1ncnc2c1ncn2[C@@H]1O[C@H](COP(=O)(O)OP(=O)(O)OP(=O)(O)O)[C@@H](O)[C@H]1O
The data set is described as follows: malachite green phosphate release. The conditions noted are these: Zn-bound MigC (1 equivalent Zn), 2 mM MgCl2, 150 mM KCl, pH 7.4, 37 °C.

B1: MurD (Acinetobacter baumannii ATCC 17978) (protein)
chain: MLIQRGGLKVVAGLGISGVSAVNFLHEQGYQVAVTDSRPTPPGHDQIPAGVKTSFGQLDQELLLQAEEIILSPGLAPQLPEIQAAIAKGISVVGDIQLLRRATDVPIVAITGSNAKSTVTTLIGLMAKDAGKKVAVGGNLGRPALDLLKDQPELLVLELSSFQLETTSHLNAEVAVVLNMSEDHLDRHGNMLGYHQAKHRIFQGAKKVVFNRDDALSRPLVPDTTPMQSFGLNAPDLNQYGVLRDADGTLWLACGLQRLIKSSDLYIQGMHNVANALACLALGEAIGLPMESMLETLKQFKGLEHRCEYVKTVHDVRYYNDSKGTNVGATLAAIDGLGAAIEVKKGKVALILGGQGKGQDFSPLRSSIEKYAKVVVLIGEDAPVIEQAIQGATKILHAATLKEAVELCQRETQAEDVVLLSPACASFDMFKSYNDRGQQFVACVNSLV
notes: full length, N-terminal 6xHis tag removed by TEV protease, E. coli BL21(DE3)
Broadly, the Km is the concentration of substrate that gives half-maximal velocity. Regarding B1, the Km in the data set “HPLC of UMAG formation” was found to be 149 ± 25 µM.

B2: MigC (A1S_0934) (Acinetobacter baumannii) (protein)
chain: MKLIAQKTVPTHIISGFLGAGKTTLLQHLLSQKPKDEVWAVLMNEFGQIGVDQQLLPQDQGYAVKELLGGCLCCSSQLPMHIALARLLSEQKPDRLFIEPTGLGHPSQLFDQLTEPHWQNSLAMRALVTVVDGSRLHDTNWVKQNLYEDQLKAAQIVVVSHADTMTFEDEQALVELKEEYQPYQQQWLKTEHGQLELAQIDVPARLTERSIQPLLKLQKQMTEAEVVKEIHQLPYHYVETAQGYMVAGWKFPKRWKFEFYALLDVLCAQQDWLRIKGIFNTDQGWKTFNFNPEQFNYKSGEEGIDNRIEMISQHEHDWLAFETELLACRIEQ
notes: pre-loaded with 1 equivalent Zn; UniProt ID is the one representing MigC in a homologue alignment and may be from another strain
For B2, the Km in data set [1] is listed as 110 ± 14 µM; in data set [2] it was 51.1 ± 12 µM.
